The text below walks through data of the DeepSol protein solubility set.

The data set can be described thus: soluble on expression in E. coli; label from the status in PepcDB or PDB records.
Turning to “MAYLERAYFGLQCFWGESAWAKLKGVVVTRVGYAGGKQPNPTYKNIKDHTEITEITFDPKVIEYSKLTNFFWKHHNPAERRKKQYQSAILYVNDDQKKVAEETLKVAKDKHGDIETYIEPLDKFYQAEDYHQKYWFRQKKILFDELSLLDTQVAEGELATKLNAYCAGFQDFHDLERLAKEYGLKDSFVNKVKDYALSGGDPRNCHA”, the “soluble on expression in E. coli” value is given as “not soluble”.
For the sequence “MAHHHHHHMKCFLIVDAQNDFLPTGSFNSRDDYMDTLNKINAIRLRLHNCTEKDLLKLSNCKHLMKYQPDKLLKENIVQYHQCNNDIDDDEREGDILIFPTDHRVMTCLSNRLSASNICSDLHKQTAQGTANGVERIPNNNNNGFSHTKEGTSHNGTHMHNHHPDESHQKNVETNDVETNNLARRNRSKESTNSENAKFALNILSVDYHPPCHISFAETHRILFEQIKRNKGTKNSSAEINIDRVTELSSHAQVNSSVASEEEAEGAHAEEAECDDEGTPSLDHTNEADGGEVQEPPQADLLQSAFLKKNKIFNLTDVMKNIQKIKSTRYIYKNVNSVSDIKEYSKLNFLNEWIDVWPIHCVRNTPGCKVHPNLIRHINDIVIKKADTENHDSHTIFENSEINQKILNLLKKQNIKSVYICGFIFEYCVKETALSFFNLGFDTYIVEDATAYLFGREEDKDNLKKKGIKFVNSSTMFA”, the “soluble on expression in E. coli” value is listed as “not soluble”.
With “MGSDKIHHHHHHMNADEFVEAFNNAKDLTELELLAELGKSISDDLEGHEKGKVLGTLGNIYYALHRLKEAEEAYLEALNVYLKLSEEDEGFLPYVVGCLYNLGNLYQVSRKFAEAEKAYTDALKVLGDVRNDQRLAILTALGTMYAKLDMKEHAERCLVEAFEMAKVKGDARLLGTLLNNLAVVYQRGGRKREAAMLLKMALDALERVGEDLGIAAVLQNLLPYLDEDELRRVMERLESFGELPIDLKAKIAYFKARRAEEKGEDSAKHYMEAACLGFMAYRNFGFQSINFMHCLDKVIESDSELREDAVVLKKVILKYYYGSQKVEIDFDSRVGRMIKAVLEGDDIYEDGILEDTVRLIAEDLLKAGTKV” the entry was “not soluble”; with “MNAKKRKGSAVERNIVSRLRDKGFAVVRAPASGSKRKDPIPDIIALKNGVIILIEMKSRKDIEGKIYVRREQAEGIIEFARKSGGSLFLGVKKPGVLKFIPFEKLRRTETGNYVADSEIEGLDLEDLVRLVEAKISRTLDNFL”, “soluble”; with “MSVTMSEAFDYSMIDNILSEHGTSETAIIAILQSIQEEYHYIPKEVFPYLSKKLKVSEARIFSVATFYENFSLEPKGKYIIKVCDGTACHVRKSIPIIERLRKELGLSGTKPTTDDLMFTVETVSCLGACGLAPVITVNDKVYAEMTPDKASELIKQLREGDADA”, “not soluble”.
Then “MAHHHHHHMEVKEVQPQKRLQPACDAKGENGFPLTIPCERQKVANLAPHRPLRRFLEAMRADNQNLCALKGSAVHHLKKDLRGDEKQVVLSCETPSRSNRLREKYECMKKMRFNETQEALARECDLSRIIIELQKRIEDAEASREFEREVHARESFYLLKENECLKEQVRTTEKMLLDVRNNYNLEISKLNTRVSDLEDSLVAEGQRAKTREAEQERAIQNLCSNLYTTQGELERYVEKNRELASVNSLLEEMRAESWRDKRECTVWYEVLRRREVFMLLEREAFTELQCLCMQEMNRFWQIKDDSYQAMFCSEAERFLGHIIREAEICYEMKQLMFDNATASIEKETWISLHFSKVQELSRLSEKHEALSILLAQYMREVEEIQQGNLEQVLRRKTVDDASIAYMLHQRDNEVSDKLRTWKGALQEAHKLLTALLKRYEPFQRGDEVFVGRVMEWLISAPHVKEVINVFLP”, with “not soluble”; and “MGSDKIHHHHHHMGLASPWQVSISSFDAEKKRLDIHLDVAPGSTFCCPECGILKLQSFPWSGRDSGFTLLFEAMIMVMARSMAVKAIATIVGEHDTRIWRIVHHYVDQAREMEDYSAVTTVGVDEPSSKRGHNSVTLFADLARSKVLFATEGKDASTVERFRDDLVAHKGNPASVTECCSDMSPACISGIGSHFVNAHLSFDKFHVMQIINHAVDEVRRQEQQERPELKKSRYLWLKNQQNLKAKQRNRLEELSLAKLNLKTARADRMRLAFQECFNQPVTLAESFLKKWCFRAANSISPYPLETARSQDNDGWTHRASWAGI”, with “not soluble”; and “MKFLQKEELRTLLQSLDLQSGINNDWFLLLIAKTGMRYAEALALTPSDFDWVNATVTIDKSWDYKTHRGFKKTKSTASDREIAIDWQIVGQFKPLIQDLPANDPIFIEKTERGTYKKQYNSTMNNYLEAKCKTLTITVISLHALRHTHASVLLAEGVSIHTISARLGHADVGVTQEIYAHVLDELQKKDDQKMMSVLMQIALEHHHHHH”, with “soluble”.
With “MPPDDPSGRHGPRIESFLSKVPVVSSNPLVCPYARKCTYGNKCKFYHPERANGQHMSVTERLMKENQQKKSLGAVKSMQYEMFKNKHAALSRTQSLNVVKQLTENMSQLPPTPESPMQMPRQHMQLQQANSAPWQQHTVVQRHGSSPLTPVNRQMNVYPDMYNMSQQQNHQVLPNQHGVIGGQRPPKMTTTVSQTHLFAPSTAVWGHSELSVGPVNTGSDESLAEVRSRVHFHLCNIFPHDFVESVMAANPEEVNAPVLCELIIRAQKEYRK” the entry was “not soluble”; with “MSLDIEQQFLNDLDNQLWRAADKLRSNLDAANYKHVVLGLIFLKYVSDAFEERQQELTELFQKDDDDNIYYLPREDYDSDEAYQQAIAEELEIGDYYTEKNVFWVPKTARWNKLRDVITLPTGSVIWQDEQGEDVKLRSVSWLIDNAFDDIEKANPKLKGILNRISQYQLDADKLIGLINEFSLTSFNNPEYNGEKLNLKSKDILGHVYEYFLGQFALAEGKQGGQYYTPKSIVTLIVEMLEPYKGRVYDPAMGSGGFFVSSDKFIEKHANVKHYNASEQKKQISVYGQESNPTTWKLAAMNMVIRGIDFNFGKKNADSFLDDQHPDLRADFVMTNPPFNMKDWWHEKLADDPRWTINTNGEKRILTPPTGNANFAWMLHMLYHLAPTGSMALLLANGSMSSNTNNEGEIRKTLVEQDLVECMVALPGQLFTNTQIPACIWFLTKDKNAKNGKRDRRGQVLFIDARKLGYMKDRVLRDFKDEDIQKLADTFHNWQQEWSEENNQAGFCFSADLALIRKNDFVLTPGRYVGAEAEEDEGHHHHHH”, “soluble”.
Turning to “MPTENELKIYLKRWDKKYGLTYKVLDILQTVFYRSDATREAFVEMCGDLDVQKLTFDSYLYKTVVPANPITQLKITAKTIGSLIRGNALAPLEHHHHHH”, the “soluble on expression in E. coli” value is on record as “not soluble”.
Then “MGSDKIHHHHHHMDYLDIGQAADNKYYSSKRTLPLAIMKENAKEYQPLKINTIKTCSCKENNLNCLTAKEWIKRQIGVWEFYYEKRDIRDKTVHPATFPISLAKQVIELFSHEGELVVDPFVGSGTTLVAARDSNRNAVGFDLQEKYIKLCAERLSTQRIVGNAQQVAIEEDARNISNYFNEESISLIFTSPPYANLLNRERKNKSRRNRKNNQLGKVEQYSQDPRDLGTLDVESYTKEMGDIFEKVKPALRTKGHCVINVPDMWWENKRIAIHVYLINEMTKRGYELRNIIIWDKRNLVNQIGIFGWPSNYITMGVTFEYLLDFWKP”, with “not soluble”; and “MLDTNMKTQLRAYLEKLTKPVELIATLDDSAKSAEIKELLAEIAELSDKVTFKEDNTLPVRKPSFLITNPGSQQGPRFAGSPLGHEFTSLVLALLWTGGHPSKEAQSLLEQIRDIDGDFEFETYYSLSCHNCPDVVQALNLMAVLNPRIKHTAIDGGTFQNEITERNVMGVPAVFVNGKEFGQGRMTLTEIVAKVDTGAEKRAAEALNKRDAYDVLIVGSGPAGAAAAVYSARKGIRTGLMGERFGGQVLDTVDIENYISVPKTEGQKLAGALKAHVSDYDVDVIDSQSASKLVPAATEGGLHQIETASGAVLKARSIIIATGAKWRNMNVPGEDQYRTKGVTYCPHCDGPLFKGKRVAVIGGGNSGVEAAIDLAGIVEHVTLLEFAPEMKADQVLQDKVRSLKNVDIILNAQTTEVKGDGSKVVGLEYRDRVSGDIHSVALAGIFVQIGLLPNTHWLEGALERNRMGEIIIDAKCETSVKGVFAAGDCTTVPYKQIIIATGEGAKASLSAFDYLIRTKIA”, with “soluble”; and “MGSDKIHHHHHHMTRTSPTHAKLAQPIVHAPGLFHSLAPGERKRDKLDVTHVAGDTTVRFVGFEPLDSTDLRVLQGLIALATAGLRNIRRLLRDGQSLRTSLDLKGDAQDERTVAARFTLASLADMAGFDRGGFGCRQMRASLQRLSNVTVLVDRPEFEGAFRLVSGYRLDKHTGELVVSISPLGTTAILGRQGYLRLNMDEVRRIHGEVAHLIHSRLHWVNQGDRRPVNMDTLCSYAYVGVRTGSALRKRRMAVRQALKELMDVGWTVTEKYPGTYLIGRPRRASDQGELVTRAGVNW”, with “not soluble”.
Then “MKRSIKHIYLLSDATGETVERVVRAALSQFRDVEARFHRVTRIRSREDVIWALEEVLREPGMVVYTLVDTELAQLLRDEAEAHGLDAIDLISPLLFKLSDFFGEAPQKEPGLLHQINSEYHKRVDAVDFTVKHDDGQDPRGLAKADFILVGVSRSSKTPLSMYLAHKGYKVANVPIVKGIDPPPELYKVDQKRVVGLIIDAERLVQIRTARLRNLGQMPKGSYADYERIEEELEFCRRLYRRNPQWLVIDVTKKSVEESAAEIIQKLAGLEHHHHHH”, with “not soluble”; and “MGSDKIHHHHHHMKSIMDSLFDSPVQTARSSSDSDAHNFFKAGPYAPLAARMRPQSLDEVVGQRHLLDSGKPLQRLIAGSGDASVILYGPPGTGKTTIASLISAGTGHEFVGLSALNSGVKEIREVIDQARRNLIHGKRTVLFIDEVHRFSKTQQDALLAAVENRTVLLVAATTENPSFSVVAPLLSRSLILQLKPLTHDDIKTVLLHALQDKRGLDNRITISDEALEQLVLLSGGDARRSLTYLEAASESLADGEELTPEIIRHNVDKAIVRYDRDGDQHYDVVSAFIKSMRGSDVDAALHYLARMIDAGEDPRFIARRLVIHASEDVGMADPQALSVAVAASQAVALIGMPEARINLAQATIHLATAPKSNAVITAIDAALADVKQGKTGPVPAHLRDGHYAGAKQLGNAVGYKYPHDDPRGIVEQQYIPNGLEDVVYYRPSEHGAEQRIESYLGKLRRIVRGQRR”, with “not soluble”; and “MLYNMDERFEIKDIVAREVIDSRGNPTVEVEVITKGNGYGSAIVPSGASTGTHEALELRDKEKRFGGKGVLMAVENVNSIIRPEILGYDARMQREIDTIMIELDGTPNKSRLGANAILAVSLAVAKAAAATAKIPLYKYLGGFNSYVMPVPMMNVINGGKHAGNDLDLQEFMIMPVGATSISEAVRMGSEVYHVLKNVILEKYGKNAVNVGDEGGFAPPLKTSREALDLLTESVKKAGYEDEVVFALDAAASEFYKDGYYYVEGKKLTREELLDYYKALVDEYPIVSIEDPFHEEDFEGFAMITKELDIQIVGDDLFVTNVERLRKGIEMKAANALLLKVNQIGTLSEAVDAAQLAFRNGYGVVVSHRSGETEDTTIADLSVALNSGQIKTGAPARGERTAKYNQLIRIEQELGLSKYAGRNFRCPF”, with “soluble”.
Then “MAVPVRHLVAVTACVSGVAHTYMAAERLEKLCQQEKWSIKIETQGALGTENRLTEEDIRRADVVLLITDIELAGVERFTRSRYVQSGISAFLREPQRVMSAVRKLLSAPQHTHLILE”, with “not soluble”; and “AGKTLYDKLWDMHLVKQRDDGSALIYIDRHILHEVTSPQAFEGLRLAGRKPWRIDANIATPDHNVPTTRTERKGGIAAIADEVSRLQVQTLDENCDDFGITEFKMNDVRQGIVHVVGPEQGATLPGMTVVCGDSHTSTHGAFGALAHGIGTSEVEHVLATQCLVAKKMKN”, with “not soluble”.
